{
  "source": "patent US20170137511A1",
  "about": "(CALYPSO BIOTECH, published 2017)",
  "data": [
    {"molecular_target": "recombinant human IL-15 (Prospec cat no. CYT230) (human, UniProt P40933 49-162)", "sequence (P40933 other isoform, or with tags, fused parts or gaps)": "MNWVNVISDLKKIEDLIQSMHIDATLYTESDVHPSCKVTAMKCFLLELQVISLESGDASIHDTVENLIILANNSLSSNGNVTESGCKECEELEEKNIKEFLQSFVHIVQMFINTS", "assay": "ELISA, plate-bound human IL-15; printed as BC50 (half-maximal binding concentration)", "procedure": "Maxisorp plates were coated with recombinant human IL-15 (Prospec cat no. CYT230) or Rhesus macaque IL-15 (MyBiosource cat. no. MBS948894) at 100 ng/well in carbonate coating buffer for 2 hours at 37° C. Since published sequences of Rhesus macaque and Cynomolgus monkey IL-15 are identical, such recombinant IL-15 protein was referred to as Macaque Monkey IL-15. Tested human IL-15 recombinant protein has a sequence identical to that provided in SEQ ID NO: 1 but with an additional methionine at the N-terminal position as usually done for expressing recombinant proteins in E. Coli. Tested recombinant Macaque Monkey IL-15 was produced in yeast and has a sequence identical to that provided in SEQ ID NO: 4 but with an additional N-terminal His tag.\nThe plate was then blocked with 2% normal goat serum for 30 min at 37° C. and washed 6 times with PBS-Tween (0.05% Tween-20 in PBS, v/v). Test antibodies were added to the plate in triplicate at various dilutions in PBS-Tween and the plate was incubated with gentle rocking at room temperature for 2 hours. The plate was then washed 6 times with PBS-Tween and an appropriate dilution of goat anti-human IgG antibody (Millipore cat. no. AP309P) conjugated to horseradish peroxidase (HRP) was added to the plate and left rocking at room temperature for 1 hour. The plate was then washed 6 times with PBS-Tween and incubated with TMB substrate. The reaction was stopped by the addition of 1M H₂SO₄ and read at 450 nm. Dose response curves of absorbance versus concentration were plotted and analyzed to determine half-maximal binding concentrations (BC₅₀) using the Graphpad Prism software. BC₅₀ values expressed as molarity were extrapolated from concentration in ng/ml using a 150 kDa molecular weight value for all antibodies.", "units": {"EC50": "nM"}, "values": [
      {"binder": "huB-E29-3 (antibody, human IgG1, kappa, V domains shown, Humanized B-E29 variant; human IgG1 (G1m3) / kappa (Km3), produced in CHO cells; also called huVH3/huVL1) VH: EVRLMASGGGLVQPGGSLRLSCAASEFTFSNYAMSWVRQAPGKGLEWVSTISRGGDYTYYPDSVKGRFTISRDNSKNTLYLQMNSLRAEDTAVYYCARRVSMITGGWAMDYWGQGTLVTVSS VL: DVVMTQSPLSLPVTLGQPASISCRSSQSIVDITGNTYLEWYQQRPGQSPRLLIYKVFNRFSGVPDRFSGSGSGTDFTLKISRVEAEDVGVYYCFQDSFVPYTFGQGTKLEIKR", "EC50": 2.62},
      {"binder": "huB-E29-6 (antibody, human IgG1, kappa, V domains shown, Humanized B-E29 variant; human IgG1 (G1m3) / kappa (Km3), produced in CHO cells; also called huVH4/huVL1) VH: EVRLMASGGGLVQPGGSLRLSCAASEFTFSNYAMSWVRQAPGKGLEWVATISRGGDYTYYPDSVKGRFTISRDNSKNTLYLQMNSLRAEDTAVYYCARRVSLITGGWAMDYWGQGTLVTVSS VL: DVVMTQSPLSLPVTLGQPASISCRSSQSIVDITGNTYLEWYQQRPGQSPRLLIYKVFNRFSGVPDRFSGSGSGTDFTLKISRVEAEDVGVYYCFQDSFVPYTFGQGTKLEIKR", "EC50": 1.84},
      {"binder": "huB-E29-8 (antibody, human IgG1, kappa, V domains shown, Humanized B-E29 variant; human IgG1 (G1m3) / kappa (Km3), produced in CHO cells; also called huVH6/huVL1) VH: EVRLMASGGGLVQPGGSLRLSCAASEFTFSNYAMSWVRQAPGKGLEWVATISRGGDYTYYPDTVKGRFTISRDNSKNTLYLQMNSLRAEDTAVYYCARRVSIITGGWAMDYWGQGTLVTVSS VL: DVVMTQSPLSLPVTLGQPASISCRSSQSIVDITGNTYLEWYQQRPGQSPRLLIYKVFNRFSGVPDRFSGSGSGTDFTLKISRVEAEDVGVYYCFQDSFVPYTFGQGTKLEIKR", "EC50": 1.79},
      {"binder": "huB-E29-9 (antibody, human IgG1, kappa, V domains shown, Humanized B-E29 variant; human IgG1 (G1m3) / kappa (Km3), produced in CHO cells; also called huVH7/huVL1) VH: EVRLMASGGGLVQPGGSLRLSCAASEFTFSNYAMSWVRQAPGKGLEWVATISRGGDYTYYPDTVKGRFTISRDNSKNTLYLQMNSLRAEDTAVYYCARRVSAITGGWAMDYWGQGTLVTVSS VL: DVVMTQSPLSLPVTLGQPASISCRSSQSIVDITGNTYLEWYQQRPGQSPRLLIYKVFNRFSGVPDRFSGSGSGTDFTLKISRVEAEDVGVYYCFQDSFVPYTFGQGTKLEIKR", "EC50": 1.99},
      {"binder": "huB-E29-11 (antibody, human IgG1, kappa, V domains shown, Humanized B-E29 variant; human IgG1 (G1m3) / kappa (Km3), produced in CHO cells; also called huVH9/huVL1) VH: EVRLMASGGGLVQPGGSLRLSCAASEFTFSNYAMSWVRQAPGKGLEWVATISRGGDYTYYPDTVKGRFTISRDNSKNTLYLQMNSLRAEDTAVYYCARRVSMITGGFAMDYWGQGTLVTVSS VL: DVVMTQSPLSLPVTLGQPASISCRSSQSIVDITGNTYLEWYQQRPGQSPRLLIYKVFNRFSGVPDRFSGSGSGTDFTLKISRVEAEDVGVYYCFQDSFVPYTFGQGTKLEIKR", "EC50": 0.98},
      {"binder": "huB-E29-12 (antibody, human IgG1, kappa, V domains shown, Humanized B-E29 variant; human IgG1 (G1m3) / kappa (Km3), produced in CHO cells; also called huVH10/huVL1) VH: EVRLMASGGGLVQPGGSLRLSCAASEFTFSNYAMSWVRQAPGKGLEWVATISRGGDYTYYPDTVKGRFTISRDNSKNTLYLQMNSLRAEDTAVYYCARRVSMITGGAAMDYWGQGTLVTVSS VL: DVVMTQSPLSLPVTLGQPASISCRSSQSIVDITGNTYLEWYQQRPGQSPRLLIYKVFNRFSGVPDRFSGSGSGTDFTLKISRVEAEDVGVYYCFQDSFVPYTFGQGTKLEIKR", "EC50": 0.593},
      {"binder": "huB-E29-13 (antibody, human IgG1, kappa, V domains shown, Humanized B-E29 variant; human IgG1 (G1m3) / kappa (Km3), produced in CHO cells; also called huVH11/huVL1) VH: EVRLMASGGGLVQPGGSLRLSCAASEFTFSNYAMSWVRQAPGKGLEWVATISRGGDYTYYPDSVKGRFTISRDNSKNTLYLQMNSLRAEDTAVYYCARRVSMITGGWALDYWGQGTLVTVSS VL: DVVMTQSPLSLPVTLGQPASISCRSSQSIVDITGNTYLEWYQQRPGQSPRLLIYKVFNRFSGVPDRFSGSGSGTDFTLKISRVEAEDVGVYYCFQDSFVPYTFGQGTKLEIKR", "EC50": 3.17},
      {"binder": "huB-E29-15 (antibody, human IgG1, kappa, V domains shown, Humanized B-E29 variant; human IgG1 (G1m3) / kappa (Km3), produced in CHO cells; also called huVH13/huVL1) VH: EVRLMASGGGLVQPGGSLRLSCAASEFTFSNYAMSWVRQAPGKGLEWVATISRGGDYTYYPDSVKGRFTISRDNSKNTLYLQMNSLRAEDTAVYYCARRVSMITGGWAIDYWGQGTLVTVSS VL: DVVMTQSPLSLPVTLGQPASISCRSSQSIVDITGNTYLEWYQQRPGQSPRLLIYKVFNRFSGVPDRFSGSGSGTDFTLKISRVEAEDVGVYYCFQDSFVPYTFGQGTKLEIKR", "EC50": 2.53},
      {"binder": "huB-E29-16 (antibody, human IgG1, kappa, V domains shown, Humanized B-E29 variant; human IgG1 (G1m3) / kappa (Km3), produced in CHO cells; also called huVH14/huVL1) VH: EVRLMASGGGLVQPGGSLRLSCAASEFTFSNYAMSWVRQAPGKGLEWVATISRGGDYTYYPESVKGRFTISRDNSKNTLYLQMNSLRAEDTAVYYCARRVSMITGGWAMDYWGQGTLVTVSS VL: DVVMTQSPLSLPVTLGQPASISCRSSQSIVDITGNTYLEWYQQRPGQSPRLLIYKVFNRFSGVPDRFSGSGSGTDFTLKISRVEAEDVGVYYCFQDSFVPYTFGQGTKLEIKR", "EC50": 2.01},
      {"binder": "huB-E29-17 (antibody, human IgG1, kappa, V domains shown, Humanized B-E29 variant; human IgG1 (G1m3) / kappa (Km3), produced in CHO cells; also called huVH15/huVL1) VH: EVRLMASGGGLVQPGGSLRLSCAASEFTFSNYAMSWVRQAPGKGLEWVATISRGGDYTYYPDTVKGRFTISRDNSKNTLYLQMNSLRAEDTAVYYCARRVSMITGGWAMDYWGQGTLVTVSS VL: DVVMTQSPLSLPVTLGQPASISCRSSQSIVDITGNTYLEWYQQRPGQSPRLLIYKVFNRFSGVPDRFSGSGSGTDFTLKISRVEAEDVGVYYCFQDSFVPYTFGQGTKLEIKR", "EC50": 2.61},
      {"binder": "huB-E29-19 (antibody, human IgG1, kappa, V domains shown, Humanized B-E29 variant; human IgG1 (G1m3) / kappa (Km3), produced in CHO cells; also called huVH1/huVL5) VH: EVRLMASGGGLVQPGGSLRLSCAASEFTFSNYAMSWVRQAPGKGLEWVATISRGGDYTYYPDSVKGRFTISRDNSKNTLYLQMNSLRAEDTAVYYCARRVSMITGGWAMDYWGQGTLVTVSS VL: DVVMTQSPLSLPVTLGQPASISCRSSQSIVDITGNTYLEWYQQRPGQSPRLLIYKVFNRFSGVPDRFSGSGSGTDFTLKISRVEAEDVGVYYCFQDTFVPYTFGQGTKLEIKR", "EC50": 2.21},
      {"binder": "huB-E29-22 (antibody, human IgG1, kappa, V domains shown, Humanized B-E29 variant; human IgG1 (G1m3) / kappa (Km3), produced in CHO cells; also called huVH16/huVL6) VH: EVQLVESGGGLVQPGGSLRLSCAASEFTFSNYAMSWVRQAPGKGLEWVATISRGGDYTYYPDSVKGRFTISRDNSKNTLYLQMNSLRAEDTAVYYCARRVSFITGGYAFDYWGQGTLVTVSS VL: DVVMTQSPLSLPVTLGQPASISCRSSQSIVDITGNTYLEWFQQRPGQSPRRLIYKVFNRFSGVPDRFSGSGSGTDFTLKISRVEAEDVGVYYCFQESFVPYTFGQGTKLEIKR", "EC50": 3.87},
      {"binder": "huB-E29-30 (antibody, human IgG1, kappa, V domains shown, Humanized B-E29 variant; human IgG1 (G1m3) / kappa (Km3), produced in CHO cells; also called huVH20/huVL1) VH: EVRLMASGGGLVQPGGSLRLSCAASEFTFSNYAMSWVRQAPGKGLEWVATISRGGDYTYYPDSVKGRFTISRDNSKNTLYLQMNSLRAEDTAVYYCARRVSFITGGYAMDYWGQGTLVTVSS VL: DVVMTQSPLSLPVTLGQPASISCRSSQSIVDITGNTYLEWYQQRPGQSPRLLIYKVFNRFSGVPDRFSGSGSGTDFTLKISRVEAEDVGVYYCFQDSFVPYTFGQGTKLEIKR", "EC50": 5.87},
      {"binder": "huB-E29-31 (antibody, human IgG1, kappa, V domains shown, Humanized B-E29 variant; human IgG1 (G1m3) / kappa (Km3), produced in CHO cells; also called huVH20/huVL6) VH: EVRLMASGGGLVQPGGSLRLSCAASEFTFSNYAMSWVRQAPGKGLEWVATISRGGDYTYYPDSVKGRFTISRDNSKNTLYLQMNSLRAEDTAVYYCARRVSFITGGYAMDYWGQGTLVTVSS VL: DVVMTQSPLSLPVTLGQPASISCRSSQSIVDITGNTYLEWFQQRPGQSPRRLIYKVFNRFSGVPDRFSGSGSGTDFTLKISRVEAEDVGVYYCFQESFVPYTFGQGTKLEIKR", "EC50": 3.51},
      {"binder": "huB-E29-34 (antibody, human IgG1, kappa, V domains shown, Humanized B-E29 variant; human IgG1 (G1m3) / kappa (Km3), produced in CHO cells; also called huVH21/huVL6) VH: EVRLMASGGGLVQPGGSLRLSCAASEFTFSNYAMSWVRQAPGKGLEWVATISRGGDYTYYPESVKGRFTISRDNSKNTLYLQMNSLRAEDTAVYYCARRVSFITGGYAMDYWGQGTLVTVSS VL: DVVMTQSPLSLPVTLGQPASISCRSSQSIVDITGNTYLEWFQQRPGQSPRRLIYKVFNRFSGVPDRFSGSGSGTDFTLKISRVEAEDVGVYYCFQESFVPYTFGQGTKLEIKR", "EC50": 3.89}
    ]}
  ]
}
